This is an account of results in US20230183352A1.

The test deals with CD80-FC (UniProt P33681). In words: ELISA, CD80-FC coated 4 µg/ml, biotin-PDL1-FC titrated. On the technique in general: An ELISA detects its analyte on a solid surface through an enzyme-linked reagent.
Sequence of CD80-FC (P33681 35-242 limits assumed): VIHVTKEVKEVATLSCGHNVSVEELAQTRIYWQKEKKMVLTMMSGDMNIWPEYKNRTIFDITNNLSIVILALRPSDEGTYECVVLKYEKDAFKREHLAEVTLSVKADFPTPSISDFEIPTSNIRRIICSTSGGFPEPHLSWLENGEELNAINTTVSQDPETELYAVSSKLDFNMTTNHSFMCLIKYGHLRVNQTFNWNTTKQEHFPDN

Sequence of Biotin QP004.3 (biotin-PDL1-FC) (Q9NZQ7 19-238 limits assumed): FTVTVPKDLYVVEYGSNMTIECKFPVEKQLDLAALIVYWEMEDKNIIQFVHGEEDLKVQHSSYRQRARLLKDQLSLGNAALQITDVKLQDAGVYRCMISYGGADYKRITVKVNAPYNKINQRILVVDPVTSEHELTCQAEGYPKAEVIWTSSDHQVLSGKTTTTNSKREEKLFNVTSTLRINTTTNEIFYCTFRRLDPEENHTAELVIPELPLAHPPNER

For the substance “Biotin QP004.3 (biotin-PDL1-FC) (from UniProt Q9NZQ7 19-238) (Fc fusion)”, the ELISA reading at 0 µg/ml Biotin-QP004.3 (blank) worked out at 0.0484, the ELISA reading at 0.00064 µg/ml Biotin-QP004.3 was 0.048, the ELISA reading at 0.0032 µg/ml Biotin-QP004.3 was found to be 0.0468 and the ELISA reading at 0.016 µg/ml Biotin-QP004.3 worked out at 0.0668. In addition, the ELISA reading at 0.08 µg/ml Biotin-QP004.3 is 0.179, the ELISA reading at 0.4 µg/ml Biotin-QP004.3 worked out at 0.591, the ELISA reading at 2 µg/ml Biotin-QP004.3 turned out to be 1.87 and the ELISA reading at 10 µg/ml Biotin-QP004.3 was 3.19.
